The target of the experiment is endogenous ezrin of LLC-PK1 cells (pig (endogenous in LLC-PK1)) (UniProt F1SB42). The experiment can be described thus: SEC.

Results on 1 substance are retold here after publication PMC2185562.

Several values for one entry are separate records, joined by “and”; a condition that tells them apart may be missing. Identical values can stand only once.

For the substance “endogenous ezrin of LLC-PK1 cells (from UniProt F1SB42 1-551) (natural protein)”, the percent of the ezrin of the fraction that is oligomers is 15% and 28%; the percent of the total cellular ezrin found as oligomers in this fraction is 12.3% and 2.6%.
